Reference: patent US20220251221A1 (AGENCY FOR SCIENCE TECHNOLOGY AND RESEARCH, published 2022)

T1: recombinant IL-2Rβ-Fc (Homo sapiens (Human), UniProt P14784 27-240)
T1 construct: also called CD122-Fc; not shown: Fc part of the fusion not described
T1 sequence: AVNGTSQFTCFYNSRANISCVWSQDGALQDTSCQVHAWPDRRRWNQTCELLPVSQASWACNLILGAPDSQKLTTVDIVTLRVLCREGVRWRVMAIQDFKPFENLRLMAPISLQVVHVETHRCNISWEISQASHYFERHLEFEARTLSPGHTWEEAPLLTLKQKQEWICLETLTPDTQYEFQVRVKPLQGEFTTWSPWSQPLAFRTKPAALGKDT

T2: recombinant γc-Fc (Homo sapiens (Human), UniProt P31785 23-262)
T2 construct: also called CD132-Fc; not shown: Fc part of the fusion not described
T2 sequence: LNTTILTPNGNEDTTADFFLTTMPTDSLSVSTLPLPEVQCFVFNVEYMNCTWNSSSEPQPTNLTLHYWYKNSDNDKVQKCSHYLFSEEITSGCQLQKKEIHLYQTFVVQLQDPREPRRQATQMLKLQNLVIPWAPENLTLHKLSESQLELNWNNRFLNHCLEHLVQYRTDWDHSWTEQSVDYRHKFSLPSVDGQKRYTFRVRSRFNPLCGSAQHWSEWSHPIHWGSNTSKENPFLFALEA

T3: monomeric γc (Homo sapiens (Human), UniProt P31785 23-262, limits assumed)
T3 construct: Neither the limits nor the species of the construct are stated; also called CD132; common γ chain
T3 sequence: T2 sequence

T4: monomeric IL-2Rβ (Homo sapiens (Human), UniProt P14784 27-240, limits assumed)
T4 construct: Neither the limits nor the species of the construct are stated; also called CD122
T4 sequence: T1 sequence

B1: P2C4_FW2/P1A3_FW2 (bispecific antibody)
chain 1: not shown
chain 2: EVQLVESGGGLVQPGGSLRLSCAASGGSFSGYYWSWVRQAPGKGLEWVSEINHSGSTNYNPSLKSRFTISRDNSKNTLYLQMNSLRAEDTAVYYCARSPGGYSGGYFQHWGQGTLVTVSSGGGGSGGGGSGGGGSDIQMTQSPSSLSASVGDRVTITCRSSQSLLHSNGYNYLDWYQQKPGKAPKLLIYLGSNRDSGVPSRFSGSGSGTDFTLTISSLQPEDFATYYCMQGTHWPWTFGQGTKVEIKNSGAGTAAATHTCPPCPAPEAAGGPSVFLFPPKPKDTLMISRTPEVTCVVVDVSHEDPEVKFNWYVDGVEVHNAKTKPREEQYNSTYRVVSVLTVLHQDWLNGKEYKCKVSNKALPAPIEKTISKAKGQPREPQVCTLPPSRDELTKNQVSLSCAVKGFYPSDIAVEWESNGQPENNYKTTPPVLDSDGSFFLVSKLTVDKSRWQQGNVFSCSVMHEALHNHYTQKSLSLSPGK
modifications: Biotinylated for the ELISA; site not given.
notes: also called scFv (P2C4_FW2): scFv (P1A3_FW2)-KiH-Fc
B2: P2C4/P1A10 bispecific anti-IL-2Rβ/γc antibody, scFv-KiH-Fc format (bispecific antibody)
chain 1: not shown
chain 2: QVQLQQSGAEVKKPGSSVKVSCKASGGTFSSYAISWVRQAPGQGLEWMGGFDPEDGETIYAQKFQGRVTMTEDTSTDTAYMELSSLRSEDTAVYYCATDLRIPYYYDNPWGQGTLVTVSSGGGGSGGGGSGGGGSEIVLTQSPLSLPVTPGEPASISCRSSQSLLHSNGYNYLNWYLQKPGQSPQLLIYLGSDRASGVPDRFSGSGSGTDFTLKISRVEAEDVGVYYCMQALQTPTTFGGGTKVEIKNSGAGTAAATHTCPPCPAPEAAGGPSVFLFPPKPKDTLMISRTPEVTCVVVDVSHEDPEVKFNWYVDGVEVHNAKTKPREEQYNSTYRVVSVLTVLHQDWLNGKEYKCKVSNKALPAPIEKTISKAKGQPREPQVCTLPPSRDELTKNQVSLSCAVKGFYPSDIAVEWESNGQPENNYKTTPPVLDSDGSFFLVSKLTVDKSRWQQGNVFSCSVMHEALHNHYTQKSLSLSPGK
B3: P2C4/P1A3 Crossmab (bispecific antibody, V domains shown)
VH 1: EVQLVQSGAEVKKPGSSVKVSCKASGYTFTNYYMHWVRQAPGQGLEWMGAIMPSRGGTSYPQKFQGRVTMTGDTSTSTVYMELSSLRSEDTAVYYCARGEYYYDSSGYYYWGQGTLVTVSS
VL 1: QSALTQPASVSGSPGQSIAISCTGTSSDIGHYDFVSWYQQHPGTAPKLIIYDINNRPSGISNRFSGSKSDNMASLTISGLQPEDEADYYCSAYTSSDTLVFGGGTKLTVL
VH 2: QVQLQQWGAGLLKPSETLSLTCAVYGGSFSGYYWSWIRQPPGKGLEWIGEINHSGSTNYNPSLKSRATISVDTSKNQFSLKLSSVTAADTAVYYCATSPGGYSGGYFQHWGQGTLVTVSS
VL 2: not shown
modifications: Biotinylated for the ELISA; site not given.
notes: also called Fab (P2C4): Fab (P1A3) in CrossMab format; copies: 1 + 1 + 1 + 1

Legend:
recombinant IL-2Rβ-Fc = target: T1, recombinant IL-2Rβ-Fc; test: ELISA on coated IL-2Rβ-Fc ('Binding to IL-2RB (Fc)'), biotinylated antibody, streptavidin-HRP, the axis is [Ab]/nM
Procedure: (§1) Binding of P2C4/P1A3 to IL-2Rβ or γc was measured by ELISA analysis, using recombinant IL-2Rβ-Fc and γc-Fc coated on maxisorp plates.
(§2) Biotinylated P2C4/P1A3 was added at various concentrations. Detection of binding was performed using a colorimetric assay using HRP-conjugated streptavidin which converts TMB substrate to a blue solution. The reaction was stopped using hydrochloric acid, and absorbance was measured at 450 nm and 670 nm.

recombinant γc-Fc = target: T2, recombinant γc-Fc; test: ELISA on coated γc-Fc ('Binding to IL-2RG (Fc)'), biotinylated antibody, streptavidin-HRP, the axis is [Ab]/nM
Procedure: as §1, §2

monomeric γc = target: T3, monomeric γc; test: BLI, antibody captured on anti-human Fc biosensor tips, monomeric γc in solution, 1:1 Langmuir fit
Procedure: (§3) The affinity of binding of P2C4/P1A3 and P2C4/P1A10 to IL-2Rβ and γc was measured by Bio-Layer Interferometry (BLI).
(§4) P2C4/P1A3 or P2C4/P1A10 were captured on anti-human Fc biosensor tips, and 5 different concentrations of monomeric IL-2Rβ or γc were allowed to bind to the captured antibodies. Dissociation of the antigen from the immobilised antibodies was performed for 5 min. Binding affinity was calculated by fitting binding curves using the 1:1 Langmuir model.

monomeric IL-2Rβ = target: T4, monomeric IL-2Rβ; test: BLI, antibody captured on anti-human Fc biosensor tips, monomeric IL-2Rβ in solution, 1:1 Langmuir fit
Procedure: as §3, §4

Binder | EC50 (recombinant IL-2Rβ-Fc) | EC50 (recombinant γc-Fc) | Kd (monomeric γc) | koff (monomeric γc) | kon (monomeric γc) | Kd (monomeric IL-2Rβ) | koff (monomeric IL-2Rβ) | kon (monomeric IL-2Rβ)
B1 | 1.92 nM | 48.8 nM |  |  |  |  |  | 
B2 |  |  | 61.8 nM | 0.00961 s⁻¹ | 156000 M⁻¹ s⁻¹ | 28.2 nM | 0.0044 s⁻¹ | 156000 M⁻¹ s⁻¹
B3 | 0.772 nM | 21.2 nM |  |  |  |  |  | 
